Values quoted from earlier work as cited in patent US5866683A, “Isoelectric point markers for isoelectric focusing with fluorescence detection” (Laboratory of Molecular Biophotonics, priority 1995, dated 1999).
Several values for one entry are separate records, joined by “and”; a condition that tells them apart may be missing. Identical values can stand only once.

B1: amyloglucosidase (protein, UniProt P69328 25-640, looked up)
Glucoamylase: ATLDSWLSNEATVARTAILNNIGADGAWVSGADSGIVVASPSTDNPDYFYTWTRDSGLVLKTLVDLFRNGDTSLLSTIENYISAQAIVQGISNPSGDLSSGAGLGEPKFNVDETAYTGSWGRPQRDGPALRATAMIGFGQWLLDNGYTSTATDIVWPLVRNDLSYVAQYWNQTGYDLWEEVNGSSFFTIAVQHRALVEGSAFATAVGSSCSWCDSQAPEILCYLQSFWTGSFILANFDSSRSGKDANTLLGSIHTFDPEAACDDSTFQPCSPRALANHKEVVDSFRSIYTLNDGLSDSEAVAVGRYPEDTYYNGNPWFLCTLAAAEQLYDALYQWDKQGSLEVTDVSLDFFKALYSDAATGTYSSSSSTYSSIVDAVKTFADGFVSIVETHAASNGSMSEQYDKSDGEQLSARDLTWSYAALLTANNRRNSVVPASWGETSASSVPGTCAATSAIGTYSSVTVTSWPSIVATGGTTTTATPTGSGSVTSTSKTTATASKTSTSTSSTSCTTPTAVAVTFDLTATTTYGENIYLVGSISQLGDWETSDGIALSADKYTSSDPLWYVTVTLPAGESFEYKFIRIESDDSVEWESDPNREYTVPQACGTSTATVTDTWR
B2: equine myoglobin (protein, UniProt P68082 2-154, looked up)
Myoglobin: GLSDGEWQQVLNVWGKVEADIAGHGQEVLIRLFTGHPETLEKFDKFKHLKTEAEMKASEDLKKHGTVVLTALGGILKKKGHHEAELKPLAQSHATKHKIPIKYLEFISDAIIHVLHSKHPGDFGADAQGAMTKALELFRNDIAAKYKELGFQG
notes: conventional protein pI marker
B3: trypsinogen (protein, UniProt P00760 18-246, looked up)
pro-form: VDDDDKIVGGYTCGANTVPYQVSLNSGYHFCGGSLINSQWVVSAAHCYKSGIQVRLGEDNINVVEGNEQFISASKSIVHPSYNSNTLNNDIMLIKLKSAASLNSRVASISLPTSCASAGTQCLISGWGNTKSSGTSYPDVLKCLKAPILSDSSCKSAYPGQITSNMFCAGYLEGGKDSCQGDSGGPVVCSGKLQGIVSWGSGCAQKNKPGVYTKVCNYVSWIKQTIASN
modifications: pro-form
notes: as for B2
B4: lentilectin (protein, UniProt P02870 31-210; P02870 218-269, looked up)
Lectin beta chain: TETTSFSITKFSPDQKNLIFQGDGYTTKGKLTLTKAVKSTVGRALYSTPIHIWDRDTGNVANFVTSFTFVIDAPSSYNVADEFTFFIAPVDTKPQTGGGYLGVFNSKEYDKTSQTVAVEFDTFYNAAWDPSNKERHIGIDVNSIKSVNTKSWNLQNGERANVVIAFNAATNVLTVTLTYP
Lectin alpha chain: VTSYTLNEVVPLKDVVPEWVRIGFSATTGAEFAAHEVHSWSFHSELGGTSSS
notes: conventional protein pI marker, three pI's

Conditions: unlabeled protein

Compared with B1, B2 is higher in “pI (known) of conventional protein pI marker” value (from here on “pI (known)”): 3.50 for the first, 7.00 for the second.

For B3, the “pI (known)” value is listed as 9.30.

In the case of B4, the “pI (known)” value is listed as 7.80 and 8.00 and 8.20.
